T1: CD81 MBP-LEL (maltose-binding protein fused to the CD81 large extracellular loop, residues 113-201) (human, UniProt P60033 113-201)
T1 construct: range 113-201
T1 sequence: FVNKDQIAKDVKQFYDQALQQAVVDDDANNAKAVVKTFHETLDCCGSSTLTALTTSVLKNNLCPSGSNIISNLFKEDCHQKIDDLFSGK

B1: CD81 MBP-LEL containing the F186S mutation (receptor)
chain: FVNKDQIAKDVKQFYDQALQQAVVDDDANNAKAVVKTFHETLDCCGSSTLTALTTSVLKNNLCPSGSNIISNLSKEDCHQKIDDLFSGK

Legend:
[1] = molecular target: B1; experiment: MBP-LEL ELISA, H53 detection
[2] = molecular target: T1, CD81 MBP-LEL (maltose-binding protein …); experiment: CD81 MBP-LEL ELISA, purified E2-his proteins, H53 detection
[3] = molecular target: T1, CD81 MBP-LEL (maltose-binding protein …); experiment: CD81 MBP-LEL solid-phase assay, intracellular E2
E2Δ12-his mature protein = E2Δ12-his mature protein (hepatitis C virus H77c, UniProt P27958 409-661); experiment: MBP-LEL ELISA, H53 detection

| Binder | binding result [1] | binding result [2] | binding result [3] | binding result (E2Δ12-his mature protein) |
| --- | --- | --- | --- | --- |
| E2Δ23-his mature protein (other) ETHVTGGNAGRTTAGLVGLLTPGAKQNIQLINTNGSWHINSTALNCNESLNTGWLAGLFYQHKFNSSGCPERLASCGSSGCWHYPPRPCGIVPAKSVCGPVYCFTPSPVVVGTTDRSGAPTYSWGANDTDVFVLNNTRPPLGNWFGCTWMNSTGFTKVCGAPPCGSSGCPTDCFRKHPEATYSRCGSGPWITPRCMVDYPYRLWHYPCTINYTIFKVRMYVGGVEHRLEAACNWTRGERCDLEDRDRSEHHHHHH | no binding | binds |  |  |
| E2Δ2-his mature protein (other) ETHVTGGNAGRTTAGLVGLLTPGAKQNIQLINTNGSWHINSTALNCNESLNTGWLAGLFYQHKFNSSGCPERLASCGSSGCWHYPPRPCGIVPAKSVCGPVYCFTPSPVVVGTTDRSGAPTYSWGANDTDVFVLNNTRPPLGNWFGCTWMNSTGFTKVCGAPPCVIGGVGNNTLLCPTDCFRKHPEATYSRCGSGPWITPRCMVDYPYRLWHYPCTINYTIFKVRMYVGGVEHRLEAACNWTRGERCDLEDRDRSEHHHHHH | no binding |  |  |  |
| E2-his mature protein (wild type, residues 384-661, strain H77c) (other) ETHVTGGNAGRTTAGLVGLLTPGAKQNIQLINTNGSWHINSTALNCNESLNTGWLAGLFYQHKFNSSGCPERLASCRRLTDFAQGWGPISYANGSGLDERPYCWHYPPRPCGIVPAKSVCGPVYCFTPSPVVVGTTDRSGAPTYSWGANDTDVFVLNNTRPPLGNWFGCTWMNSTGFTKVCGAPPCVIGGVGNNTLLCPTDCFRKHPEATYSRCGSGPWITPRCMVDYPYRLWHYPCTINYTIFKVRMYVGGVEHRLEAACNWTRGERCDLEDRDRSEHHHHHH | no binding | binds |  |  |
| E2Δ3-his mature protein (other) ETHVTGGNAGRTTAGLVGLLTPGAKQNIQLINTNGSWHINSTALNCNESLNTGWLAGLFYQHKFNSSGCPERLASCRRLTDFAQGWGPISYANGSGLDERPYCWHYPPRPCGIVPAKSVCGPVYCFTPSPVVVGTTDRSGAPTYSWGANDTDVFVLNNTRPPLGNWFGCTWMNSTGFTKVCGAPPCGSSGCPTDCFRKHPEATYSRCGSGPWITPRCMVDYPYRLWHYPCTINYTIFKVRMYVGGVEHRLEAACNWTRGERCDLEDRDRSEHHHHHH | no binding | binds |  |  |
| E2 glycoprotein expressed from pE1E2 Δ23 (HVR2 and igVR deletions) (other, also called HVR2+igVR) ETHVTGGNAGRTTAGLVGLLTPGAKQNIQLINTNGSWHINSTALNCNESLNTGWLAGLFYQHKFNSSGCPERLASCGSSGCWHYPPRPCGIVPAKSVCGPVYCFTPSPVVVGTTDRSGAPTYSWGANDTDVFVLNNTRPPLGNWFGCTWMNSTGFTKVCGAPPCGSSGCPTDCFRKHPEATYSRCGSGPWITPRCMVDYPYRLWHYPCTINYTIFKVRMYVGGVEHRLEAACNWTRGERCDLEDRDRSELSPLLLSTTQWQVLPCSFTTLPALSTGLIHLHQNIVDVQYLYGVGSSIASWAIKWEYVVLLFLLLADARVCSCLWMMLLISQAEA |  |  | binds |  |
| B1 |  |  |  | no binding |
